Source: the supplement of paper PMC7877785
± gives the uncertainty stated by the source.

Assay: self-splicing fitness, log relative to wild type (ln ratio); higher = more splicing; Tetrahymena group I intron in knt gene, E. coli kanamycin selection, DiMSum; sequences stand for … in CUCUCU…GGAGGGAAAAGUUAUCAGGCAUGCACCUGGUAGCUAGUCUUUAAACCAAUAGAUUGCAUCGGUUUAAAAGGCAAGACCGUCAAAUUGCGGGAAAGGGGUCAACAGCCGUUCAGUACCAAGUCUCAGGGGAAACUUUGAGAUGGCCUUGCAAAGGGUAUGGUAAUAAGCUGACGGACAUGGUCCUAACCACGCAGCCAAGUCCUAAGUCAACAGAUCUUCUGUUGAUAUGGAUGCAGUUCACAGACUAAAUGUCGGUCGGGGAAGAUGUAUUCUUCUCAUAAGAUAUAGUCGGACCUCUCCUUAAUGGGAGCUAGCGGAUGAAGUGAUGCAACACUGGAGCCGCUGGGAACUAAUUUGUAUGCGAAAGUAUAUUGAUUAGUUUUGGAGUACUCGUGGUCG
Method in brief: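 Library with all eight P1ex-region intron nucleotides randomised, intron inside the knt kanamycin-resistance gene on pET-22b(+), in E. coli BL21(DE3). Cells grew overnight at 37°C or 30°C on LB agar with or without 25 μg/mL kanamycin (plus 100 μg/mL carbenicillin, 50 μM IPTG, 0.2% rhamnose), in six replicate transformations. Pooled colonies were amplicon-sequenced on Illumina HiSeq 2500. DiMSum fitness is the error-weighted combination of wild-type-normalised replicate fold changes, kanamycin versus none.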

| Sequence | self-splicing fitness (ln) (30 °C) | self-splicing fitness (ln) (37 °C) |
| --- | --- | --- |
| CAGCAGCAAUAUUACGUGGG | -3.53 ± 0.14 | -2.31 ± 0.11 |
| CAGGAGCAAUAUUACGAACG | -0.795 ± 0.11 | -0.844 ± 0.13 |
| CAGGAGCAAUAUUACGAAUG | -3.6 ± 0.2 | -2.76 ± 0.22 |
| CAGGAGCAAUAUUACGACUU | -1.48 ± 0.19 | -0.618 ± 0.22 |
| CAGGAGCAAUAUUACGCAUU |  | 0.11 ± 0.4 |
| CAGGAGCAAUAUUACGCCGU | -4.09 ± 0.31 | -2.29 ± 0.29 |
| CAGGAGCAAUAUUACGCGCA | -3.62 ± 0.3 | -1.62 ± 0.25 |
| CAGGAGCAAUAUUACGGACG | -0.757 ± 0.1 | -0.376 ± 0.11 |
| CAGGAGCAAUAUUACGGAGC | -2.2 ± 0.39 | -3.3 ± 0.47 |
| CAGGAGCAAUAUUACGGGGA | -5.01 ± 0.38 | -3.47 ± 0.37 |
| CAGGAGCAAUAUUACGUCGG | -0.734 ± 0.099 | -0.66 ± 0.13 |
| CAGUAGCAAUAUUACGAAAA | -3.58 ± 0.47 | -1.8 ± 0.32 |
| CAGUAGCAAUAUUACGAAUU | -3.34 ± 0.28 |  |
| CAGUAGCAAUAUUACGACUU | 0.0553 ± 0.058 | 0.35 ± 0.071 |
| CAGUAGCAAUAUUACGAUAA | -3.55 ± 0.47 |  |
| CAGUAGCAAUAUUACGAUCA | -1.67 ± 0.24 | -2.04 ± 0.32 |
| CAGUAGCAAUAUUACGAUGU | -2.34 ± 0.16 | -1.65 ± 0.18 |
| CAGUAGCAAUAUUACGCAUA | -2.04 ± 0.2 | -1.59 ± 0.21 |
| CAGUAGCAAUAUUACGCAUG | -2.31 ± 0.2 | -2.46 ± 0.29 |
| CAGUAGCAAUAUUACGCUCC |  | -1.31 ± 0.4 |

| Sequence | self-splicing fitness (ln) (30 °C) | self-splicing fitness (ln) (37 °C) |
| --- | --- | --- |
| CAGUAGCAAUAUUACGGGCG | -0.256 ± 0.089 | 0.0762 ± 0.098 |
| CAGUAGCAAUAUUACGGUUA | -2.63 ± 0.14 | -2.69 ± 0.15 |
| CAGUAGCAAUAUUACGUCUU | -1.17 ± 0.067 | 0.135 ± 0.076 |
| CAGUAGCAAUAUUACGUGAC | -4.5 ± 0.36 | -2.23 ± 0.31 |
| CAGUAGCAAUAUUACGUGCA | -3.14 ± 0.13 | -2.45 ± 0.14 |
| CAGUAGCAAUAUUACGUGUA | -4.62 ± 0.34 | -2.55 ± 0.19 |
| CAGUAGCAAUAUUACGUUCG | 0.207 ± 0.07 | 0.209 ± 0.1 |
| CAUAAGCAAUAUUACGAAAC | -3.31 ± 0.39 | -2.38 ± 0.45 |
| CAUAAGCAAUAUUACGACAA | -3.05 ± 0.28 | -1.59 ± 0.19 |
| CAUAAGCAAUAUUACGACAG | -0.32 ± 0.072 | 0.334 ± 0.09 |
| CAUAAGCAAUAUUACGACCG | 0.135 ± 0.085 | 0.553 ± 0.14 |
| CAUAAGCAAUAUUACGACGA | -2.01 ± 0.17 | -0.546 ± 0.11 |
| CAUAAGCAAUAUUACGACUA | -1.94 ± 0.095 | -0.427 ± 0.078 |
| CAUAAGCAAUAUUACGAUAA | -4.17 ± 0.37 | -1.45 ± 0.2 |
| CAUAAGCAAUAUUACGAUAG | 0.359 ± 0.072 | 0.232 ± 0.084 |
| CAUAAGCAAUAUUACGCCCA | -2.14 ± 0.21 | -1.35 ± 0.29 |
| CAUAAGCAAUAUUACGCCCU | -2.76 ± 0.43 | -2.4 ± 0.49 |
| CAUAAGCAAUAUUACGGCCC | -3.92 ± 0.4 |  |
| CAUAAGCAAUAUUACGGCUU | -2.75 ± 0.2 | -3.07 ± 0.32 |
